# From US20200024330A1
# B1: PGT-130 (antibody, V domains shown)
# VH: QVQLQESGPGLVKPAETLSLTCSVSGESINTGHYYWGWVRQVPGKGLEWIGHIHYTTAVLHNPSLKSRLTIKIYTLRNQITLRLSNVTAADTAVYHCVRSGGDILYYYEWQKPHWFSPWGPGIHVTVSS
# VL: QSALTQPPSASGSLGQSVTISCNGTSSDIGGWNFVSWYQQFPGRAPRLIIFEVNKRPSGVPGRFSGSKSGNSASLTVSGLQSDDEGQYFCSSLFGRWDVVFGGGTKLTVL
# Tests used:
# Experiment in all cases: cell-based or functional assay
# [1] = target: Env of all HIV-1 pseudoviruses of the cross-clade 162-pseudovirus panel (n = 162)
# [2] = target: Env of the clade A HIV-1 pseudoviruses of the cross-clade 162-pseudovirus panel (n = 26)
# [3] = target: Env of the clade AG HIV-1 pseudoviruses of the cross-clade 162-pseudovirus panel (n = 10)
# [4] = target: Env of the clade B HIV-1 pseudoviruses of the cross-clade 162-pseudovirus panel (n = 31)
# [5] = target: Env of the clade C HIV-1 pseudoviruses of the cross-clade 162-pseudovirus panel (n = 27)
# [6] = target: Env of the clade F HIV-1 pseudoviruses of the cross-clade 162-pseudovirus panel (n = 15)
# [7] = target: HIV-1 Env of isolate 92TH021 (HIV-1)
# [8] = target: HIV-1 Env of isolate JR-CSF (HIV-1) (UniProt P20871)
# [9] = target: HIV-1 JR-CSF Env D417A (HIV-1 (isolate JR-CSF)) (UniProt P20871)
# [10] = target: HIV-1 JR-CSF Env E321aA (HIV-1 isolate JR-CSF) (UniProt P20871)
# [11] = target: HIV-1 JR-CSF Env F210A (HIV-1 JR-CSF) (UniProt P20871)
# [12] = target: HIV-1 JR-CSF Env F317A (HIV-1 isolate JR-CSF) (UniProt P20871)
# [13] = target: HIV-1 JR-CSF Env I414A (HIV-1 (isolate JR-CSF)) (UniProt P20871)
# [14] = target: HIV-1 JR-CSF Env I415A (HIV-1 (isolate JR-CSF)) (UniProt P20871)
# [15] = target: HIV-1 JR-CSF Env I423A (HIV-1 (isolate JR-CSF)) (UniProt P20871)
# [16] = target: HIV-1 JR-CSF Env I424A (HIV-1 (isolate JR-CSF)) (UniProt P20871)
# [17] = target: HIV-1 JR-CSF Env K305A (HIV-1 JR-CSF) (UniProt P20871)
# [18] = target: HIV-1 JR-CSF Env K421A (HIV-1 (isolate JR-CSF)) (UniProt P20871)
# [19] = target: HIV-1 JR-CSF Env L416A (HIV-1 (isolate JR-CSF)) (UniProt P20871)
# [20] = target: HIV-1 JR-CSF Env N241A (HIV-1 JR-CSF) (UniProt P20871)
# [21] = target: HIV-1 JR-CSF Env N262A (HIV-1 JR-CSF) (UniProt P20871)
# [22] = target: HIV-1 JR-CSF Env N301A (HIV-1 JR-CSF) (UniProt P20871)
# [23] = target: HIV-1 JR-CSF Env N302A (HIV-1 JR-CSF) (UniProt P20871)
# [24] = target: HIV-1 JR-CSF Env N332A (HIV-1 isolate JR-CSF) (UniProt P20871)
# [25] = target: HIV-1 JR-CSF Env N339A (HIV-1 isolate JR-CSF) (UniProt P20871)
# [26] = target: HIV-1 JR-CSF Env N355A (HIV-1 isolate JR-CSF) (UniProt P20871)
# [27] = target: HIV-1 JR-CSF Env N392Q (HIV-1 (isolate JR-CSF)) (UniProt P20871)
# [28] = target: HIV-1 JR-CSF Env Q337A (HIV-1 isolate JR-CSF) (UniProt P20871)
# [29] = target: HIV-1 JR-CSF Env Q422A (HIV-1 (isolate JR-CSF)) (UniProt P20871)
# [30] = target: HIV-1 JR-CSF Env R304A (HIV-1 JR-CSF) (UniProt P20871)
# [31] = target: HIV-1 JR-CSF Env R327A (HIV-1 isolate JR-CSF) (UniProt P20871)
# [32] = target: HIV-1 JR-CSF Env R419A (HIV-1 (isolate JR-CSF)) (UniProt P20871)
# [33] = target: HIV-1 JR-CSF Env S387A (HIV-1 (isolate JR-CSF)) (UniProt P20871)
# [34] = target: HIV-1 JR-CSF Env S393A (HIV-1 (isolate JR-CSF)) (UniProt P20871)
# [35] = target: HIV-1 JR-CSF Env T319A (HIV-1 isolate JR-CSF) (UniProt P20871)
# [36] = target: HIV-1 JR-CSF Env T341A (HIV-1 isolate JR-CSF) (UniProt P20871)
# [37] = target: HIV-1 JR-CSF Env T388A (HIV-1 (isolate JR-CSF)) (UniProt P20871)
# [38] = target: HIV-1 JR-CSF Env T413A (HIV-1 (isolate JR-CSF)) (UniProt P20871)
# [39] = target: HIV-1 JR-CSF Env V292A (HIV-1 JR-CSF) (UniProt P20871)
binder,measurement,setting,value
B1,Median IC50 against viruses neutralized with an IC50 <50 µg/ml,[1],0.18 µg/mL
same,Median IC50 against viruses neutralized with an IC50 <50 µg/ml,[2],0.09 µg/mL
same,Median IC50 against viruses neutralized with an IC50 <50 µg/ml,[3],0.04 µg/mL
same,Median IC50 against viruses neutralized with an IC50 <50 µg/ml,[4],0.09 µg/mL
same,Median IC50 against viruses neutralized with an IC50 <50 µg/ml,[5],0.15 µg/mL
same,Median IC50 against viruses neutralized with an IC50 <50 µg/ml,[6],0.07 µg/mL
same,Polyclonal Transfectant Neutralization Index (well 5147 N6),[7],4.2
same,Primary Neutralization Index (B cell culture well 5147 N6),[7],538
same,Polyclonal Transfectant Neutralization Index (well 5147 N6),[8],1.24
same,Primary Neutralization Index (B cell culture well 5147 N6),[8],19.3
same,Fold IC50 increase relative to wild-type,[9],1 fold
same,Fold IC50 increase relative to wild-type,[10],1.7 fold
same,Fold IC50 increase relative to wild-type,[11],1.7 fold
same,Fold IC50 increase relative to wild-type,[12],17 fold
same,Fold IC50 increase relative to wild-type,[13],0.7 fold
same,Fold IC50 increase relative to wild-type,[14],0.6 fold
same,Fold IC50 increase relative to wild-type,[15],> 1000 fold
same,Fold IC50 increase relative to wild-type,[16],3.9 fold
same,Fold IC50 increase relative to wild-type,[17],6.9 fold
same,Fold IC50 increase relative to wild-type,[18],2.9 fold
same,Fold IC50 increase relative to wild-type,[19],1 fold
same,Fold IC50 increase relative to wild-type,[20],0.6 fold
same,Fold IC50 increase relative to wild-type,[21],0.7 fold
same,Fold IC50 increase relative to wild-type,[22],> 1000 fold
same,Fold IC50 increase relative to wild-type,[23],1.1 fold
same,Fold IC50 increase relative to wild-type,[24],0.6 fold
same,Fold IC50 increase relative to wild-type,[25],0.2 fold
same,Fold IC50 increase relative to wild-type,[26],1.3 fold
same,Fold IC50 increase relative to wild-type,[27],1.2 fold
same,Fold IC50 increase relative to wild-type,[28],1 fold
same,Fold IC50 increase relative to wild-type,[29],1 fold
same,Fold IC50 increase relative to wild-type,[30],2.5 fold
same,Fold IC50 increase relative to wild-type,[31],2.4 fold
same,Fold IC50 increase relative to wild-type,[32],2.6 fold
same,Fold IC50 increase relative to wild-type,[33],0.7 fold
same,Fold IC50 increase relative to wild-type,[34],0.7 fold
same,Fold IC50 increase relative to wild-type,[35],1.6 fold
same,Fold IC50 increase relative to wild-type,[36],0.8 fold
same,Fold IC50 increase relative to wild-type,[37],1 fold
same,Fold IC50 increase relative to wild-type,[38],0.6 fold
same,Fold IC50 increase relative to wild-type,[39],0.9 fold
